Measurements reported in article PMC4624786.

B1: unnamed (parent)
chain 1: MSMPDAMPLPGVGEELKQAKEIEDAEKYSFMATVTKAPKKQIQFADDMQEFTKFPTKTGRRSLSRSISQSSTDSYSSAASYTDSSDDEVSPREKQQTNSKGSSNFCVKNIKQAEFGRREIEIAEQDMSALISLRKRAQGEKPLAGAKIVGCTHITAQTAVLIETLCALGAQCRWSACNIYSTQNEVAAALAEAGVAVFAWKGESEDDFWWCIDRCVNMDGWQANMILDDGGDLTHWVYKKYPNVFKKIRGIVEESVTGVHRLYQLSKAGKLCVPAMNVNDSVTKQKFDNLYCCRESILDGLKRTTDVMFGGKQVVVCGYGEVGKGCCAALKALGAIVYITEIDPICALQACMDGFRVVKLNEVIRQVDVVITCTGNKNVVTREHLDRMKNSCIVCNMGHSNTEIDVTSLRTPELTWERVRSQVDHVIWPDGKRVVLLAEGRLLNLSCSTVPTFVLSITATTQALALIELYNAPEGRYKQDVYLLPKKMDEYVASLHLPSFDAHLTELTDDQAKYLGLNKNGPFKPNYYRY
chain 2: MASASSGPAAAGFSSLDAGAPAGTAAASGIKRATVSEGPSASVMPVKKIGHRSVDSSGETTYKKTTSSALKGAIQLGITHTVGSLSTKPERDVLMQDFYVVESIFFPSEGSNLTPAHHYNDFRFKTYAPVAFRYFRELFGIRPDDYLYSLCSEPLIELSNSGASGSLFYVSSDDEFIIKTVQHKEAEFLQKLLPGYYMNLNQNPRTLLPKFYGLYCVQAGGKNIRIVVMNNLLPRSVKMHMKYDLKGSTYKRRASQKEREKTLPTFKDLDFLQDIPDGLFLDADMYSALCKTLQRDCLVLQSFKIMDYSLLMSIHNMDHAQREPTSNDTQYSADTRRPAPQKALYSTAMESIQGEARRGGTVETEDHMGGIPARNNKGERLLLYIGIIDILQSYRFVKKLEHSWKALVHDGDTVSVHRPGFYAERFQRFMCNTVFKKIPLKPSPTKKFRSGPSFSRRSGPSGNSCTSQLMASGEHRAQVTTKAEVEPDVHLGRPDVLPQTPPLEEISEGSPVPGPSFSPVVGQPLQILNLSSTLEKLDVAESEFTH
B2: unnamed (parent)
chain 1: B1 chain 1
chain 2: MATPSNLGSSVLASKTKTKKKHFVAQKVKLFRASDPLLSVLMWGVNHSINELSHVQIPVMLMPDDFKAYSKIKVDNHLFNKENMPSHFKFKEYCPMVFRNLRERFGIDDQDFQNSLTRSAPLPNDSQARSGARFHTSYDKRYVIKTITSEDVAEMHNILKKYHQYIVECHGVTLLPQFLGMYRLNVDGVEIYVIVTRNVFSHRLSVYRKYDLKGSTVAREASDKEKAKELPTLKDNDFINEGQKIYIDDSNKKIFLEKLKKDVEFLAQLKLMDYSLLVGIHDVERAEQEEVECEENEGEEEGESDGAHPIGTPPDSPGNTLNSSPPLAPGEFDPNIDVYAIKCHENAPRKEVYFMAIIDILTHYDAKKKAAHAAKTVKHGAGAEISTVNPEQYSKRFLDFIGHILT

Variants of: B1
Test: co-immunoprecipitation, Western blot quantification
Details: with partner chain of the complex shown; COS-7 cells; n = 4; parent: 100; read off a plot

Variant	percent of parent
chain 1 S76G	100 % of WT
chain 1 T72A	90 % of WT
chain 1 S74G	14 % of WT
chain 1 S64A	83 % of WT
chain 1 S68A	2 % of WT
chain 1 T82A	26 % of WT

The next lines start with the values.

percent of parent	Variant
43 % of WT	chain 1 S84A
120 % of WT	chain 1 S90A
65 % of WT	chain 1 S77A
3 % of WT	chain 1 S71A
50 % of WT	chain 1 S70A
57 % of WT	chain 1 S80A
49 % of WT	chain 1 S66A
81 % of WT	chain 1 S85A

Variants of: B2
Test: as above
Details: with partner chain of the complex shown; COS-7 cells; n = 4; parent: 100; read off a plot

Variant	percent of parent
chain 1 S77A	11 % of WT
chain 1 S74G	42 % of WT
chain 1 S68A	3 % of WT
chain 1 T82A	107 % of WT
chain 1 S76G	51 % of WT
chain 1 S71A	3 % of WT
chain 1 S64A	95 % of WT
chain 1 T72A	67 % of WT
chain 1 S66A	71 % of WT

Other lines, results leading:

percent of parent	Variant
100 % of WT	chain 1 S84A
130 % of WT	chain 1 S90A
96 % of WT	chain 1 S85A
75 % of WT	chain 1 S70A
79 % of WT	chain 1 S80A
